{"source": "patent US20260146077A1", "about": "(US Dept. of Health and Human Services, published 2026)", "binders": {"B1": {"name": "A23-58.1HC/58.1LC_94GLTG (antibody, V domains shown)", "VH": "not shown", "VL": "EIVLTQSPGTLSLSPGERATLSCRASQSVSSSYLAWYQQKPGQAPRLLIYSASSRATGIPDRFSGSGSGTDFTLTISRLEPEDFAVYFCQQYGGLTGWTFGQGTKVEIK"}, "B2": {"name": "A23-58.1HC/58.1LC_93VGLTG (antibody, V domains shown)", "VH": "not shown", "VL": "B1 VL with G93V"}, "B3": {"name": "A23-58.1HC_Y100cA/S2E12LC (antibody, V domains shown)", "VH": "not shown", "VL": "B1 VL with E1D, S7T, S51G, F88Y, G93V"}, "B4": {"name": "A23-58.1HC/S2E12LC (antibody, V domains shown)", "VH": "not shown", "VL": "B1 VL with E1D, S7T, S51G, F88Y, G93V"}, "B5": {"name": "S2E12 (antibody, V domains shown)", "VH": "not shown", "VL": "B1 VL with E1D, S7T, S51G, F88Y, G93V"}, "B6": {"name": "B1-182.1HC/S2E12LC (antibody, V domains shown)", "VH": "not shown", "VL": "B1 VL with E1D, S7T, S51G, F88Y, G93V"}, "B7": {"name": "B1-182.1HC_F100cS/S2E12LC (antibody, V domains shown)", "VH": "not shown", "VL": "B1 VL with E1D, S7T, S51G, F88Y, G93V"}, "B8": {"name": "A23-58.1HC/58.1LC_94GLT (antibody, V domains shown)", "VH": "not shown", "VL": "EIVLTQSPGTLSLSPGERATLSCRASQSVSSSYLAWYQQKPGQAPRLLIYSASSRATGIPDRFSGSGSGTDFTLTISRLEPEDFAVYFCQQYGGLTWTFGQGTKVEIK"}, "B9": {"name": "B1-182.1HC/182.1LC_93VGLTG (antibody, V domains shown)", "VH": "not shown", "VL": "B1 VL with S51G, I59F, F88Y, G93V, K109R"}}, "note": "Changes are numbered by the printed parent chain.", "data": [{"target": "BA.4.6", "test": "cell-based or functional assay", "units": {"neutralization IC50": "ng/mL", "neutralization IC80": "ng/mL"}, "values": [{"binder": "B1", "neutralization IC50": 4.2, "neutralization IC80": 15.7}, {"binder": "B2", "neutralization IC50": 4.1, "neutralization IC80": 14.8}]}, {"target": "SARS-CoV-2 spike protein, BA.2 (SARS-CoV-2, UniProt P0DTC2 14-1273)", "test": "cell-based or functional assay", "units": {"neutralization IC50": "ng/mL", "neutralization IC80": "ng/mL"}, "values": [{"binder": "B3", "neutralization IC50": 8.4, "neutralization IC80": 38.4}, {"binder": "B4", "neutralization IC50": 6.7, "neutralization IC80": 26.9}, {"binder": "B5", "neutralization IC50": 9.9, "neutralization IC80": 48.2}, {"binder": "B6", "neutralization IC50": 6.3, "neutralization IC80": 28}, {"binder": "B7", "neutralization IC50": 9.4, "neutralization IC80": 31.7}]}, {"target": "T1, SARS-CoV-2 spike protein, BA.2.12.1 (SARS-CoV-2, UniProt P0DTC2 14-1273)", "test": "cell-based or functional assay", "units": {"neutralization IC80": "ng/mL", "neutralization IC50": "ng/mL"}, "values": [{"binder": "B8", "neutralization IC80": 105}, {"binder": "B1", "neutralization IC50": 1.9, "neutralization IC80": 9.2}, {"binder": "B3", "neutralization IC50": 35.1, "neutralization IC80": 142}, {"binder": "B4", "neutralization IC50": 56.6, "neutralization IC80": 201}, {"binder": "B5", "neutralization IC50": 15.6, "neutralization IC80": 46.6}, {"binder": "B6", "neutralization IC50": 11.5, "neutralization IC80": 35}, {"binder": "B2", "neutralization IC50": 3.4, "neutralization IC80": 11.5}, {"binder": "B7", "neutralization IC50": 14.9, "neutralization IC80": 54.2}]}, {"target": "BA.2.75", "test": "cell-based or functional assay", "units": {"neutralization IC50": "ng/mL", "neutralization IC80": "ng/mL"}, "values": [{"binder": "B1", "neutralization IC50": 1, "neutralization IC80": 3.1}, {"binder": "B2", "neutralization IC50": 0.9, "neutralization IC80": 3}]}, {"target": "T1, SARS-CoV-2 spike protein, BA.2.12.1", "test": "cell-based or functional assay", "remark": "another data set of the same source", "units": {"pseudovirus neutralization IC50": "ng/mL"}, "values": [{"binder": "B8", "pseudovirus neutralization IC50": 25}]}, {"target": "T2, SARS-CoV-2 spike protein, BA.1 (SARS-CoV-2, UniProt P0DTC2 14-1273)", "test": "cell-based or functional assay", "units": {"BA.1 neutralization, fold improvement over A19-58.1": "fold", "pseudovirus neutralization IC50": "ng/mL", "fold loss in neutralization": "fold loss", "BA.1 neutralization, fold improvement over B1-182.1": "fold"}, "values": [{"binder": "B8", "BA.1 neutralization, fold improvement over A19-58.1": 7, "pseudovirus neutralization IC50": 13.7}, {"binder": "B1", "BA.1 neutralization, fold improvement over A19-58.1": "> 27"}, {"binder": "B3", "BA.1 neutralization, fold improvement over A19-58.1": 20}, {"binder": "B4", "BA.1 neutralization, fold improvement over A19-58.1": 10}, {"binder": "B5", "fold loss in neutralization": "< 10", "pseudovirus neutralization IC50": 8.8}, {"binder": "B9", "BA.1 neutralization, fold improvement over B1-182.1": "> 17"}, {"binder": "B6", "BA.1 neutralization, fold improvement over B1-182.1": 20}, {"binder": "B2", "BA.1 neutralization, fold improvement over A19-58.1": "> 30"}, {"binder": "B7", "BA.1 neutralization, fold improvement over B1-182.1": "> 14"}]}, {"target": "T3, SARS-CoV-2 spike protein, B.1.617.2 (SARS-CoV-2, UniProt P0DTC2 14-1273)", "test": "cell-based or functional assay", "units": {"neutralization IC50": "ng/mL", "neutralization IC80": "ng/mL"}, "values": [{"binder": "B9", "neutralization IC50": 1.4, "neutralization IC80": 5.9}]}, {"target": "T2, SARS-CoV-2 spike protein, BA.1", "test": "cell-based or functional assay", "remark": "another data set of the same source", "units": {"neutralization IC50": "ng/mL", "neutralization IC80": "ng/mL"}, "values": [{"binder": "B9", "neutralization IC50": 11.5, "neutralization IC80": 39.6}]}, {"target": "T4, SARS-CoV-2 spike protein, B.1.351 (SARS-CoV-2, UniProt P0DTC2 14-1273)", "test": "cell-based or functional assay", "units": {"neutralization IC50": "ng/mL", "neutralization IC80": "ng/mL"}, "values": [{"binder": "B9", "neutralization IC50": 0.9, "neutralization IC80": 4.4}]}, {"target": "SARS-CoV-2 spike protein, BA.1.1 (SARS-CoV-2, UniProt P0DTC2 14-1273)", "test": "cell-based or functional assay", "units": {"neutralization IC50": "ng/mL", "neutralization IC80": "ng/mL"}, "values": [{"binder": "B3", "neutralization IC50": 4.4, "neutralization IC80": 13.1}, {"binder": "B4", "neutralization IC50": 3.8, "neutralization IC80": 15.8}, {"binder": "B5", "neutralization IC50": 15.5, "neutralization IC80": 55.4}, {"binder": "B6", "neutralization IC50": 4.7, "neutralization IC80": 24.2}, {"binder": "B7", "neutralization IC50": 8.4, "neutralization IC80": 20}]}, {"target": "T3, SARS-CoV-2 spike protein, B.1.617.2", "test": "cell-based or functional assay", "remark": "another data set of the same source", "units": {"neutralization IC50": "ng/mL", "neutralization IC80": "ng/mL"}, "values": [{"binder": "B1", "neutralization IC50": 2.9, "neutralization IC80": 11.2}, {"binder": "B3", "neutralization IC50": 2.9, "neutralization IC80": 7.8}, {"binder": "B4", "neutralization IC50": 2.2, "neutralization IC80": 7.6}, {"binder": "B5", "neutralization IC50": 1.2, "neutralization IC80": 2.6}, {"binder": "B6", "neutralization IC50": 1.1, "neutralization IC80": 2.9}, {"binder": "B2", "neutralization IC50": 5.8, "neutralization IC80": 12.4}, {"binder": "B7", "neutralization IC50": 1.2, "neutralization IC80": 3.3}]}, {"target": "T2, SARS-CoV-2 spike protein, BA.1", "test": "cell-based or functional assay", "remark": "another data set of the same source", "units": {"neutralization IC80": "ng/mL", "neutralization IC50": "ng/mL"}, "values": [{"binder": "B8", "neutralization IC80": 46.4}, {"binder": "B1", "neutralization IC50": 3.6, "neutralization IC80": 11.9}, {"binder": "B3", "neutralization IC50": 4.9, "neutralization IC80": 26.1}, {"binder": "B4", "neutralization IC50": 9.8, "neutralization IC80": 31.1}, {"binder": "B5", "neutralization IC80": 38.5}, {"binder": "B6", "neutralization IC50": 9.9, "neutralization IC80": 45.2}, {"binder": "B2", "neutralization IC50": 3.3, "neutralization IC80": 11.2}, {"binder": "B7", "neutralization IC50": 13.9, "neutralization IC80": 51.6}]}, {"target": "T4, SARS-CoV-2 spike protein, B.1.351", "test": "cell-based or functional assay", "remark": "another data set of the same source", "units": {"neutralization IC50": "ng/mL", "neutralization IC80": "ng/mL"}, "values": [{"binder": "B1", "neutralization IC50": 1.8, "neutralization IC80": 4.4}, {"binder": "B3", "neutralization IC50": 2.6, "neutralization IC80": 5.9}, {"binder": "B4", "neutralization IC50": 3.5, "neutralization IC80": 7.9}, {"binder": "B5", "neutralization IC50": 3.9, "neutralization IC80": 8.7}, {"binder": "B6", "neutralization IC50": 0.8, "neutralization IC80": 4.4}, {"binder": "B2", "neutralization IC50": 2.7, "neutralization IC80": 5}, {"binder": "B7", "neutralization IC50": 1.5, "neutralization IC80": 4.4}]}]}
